T1: Human CD19, wild-type full-length protein expressed on cells (human, UniProt P15391 20-556)
T1 sequence: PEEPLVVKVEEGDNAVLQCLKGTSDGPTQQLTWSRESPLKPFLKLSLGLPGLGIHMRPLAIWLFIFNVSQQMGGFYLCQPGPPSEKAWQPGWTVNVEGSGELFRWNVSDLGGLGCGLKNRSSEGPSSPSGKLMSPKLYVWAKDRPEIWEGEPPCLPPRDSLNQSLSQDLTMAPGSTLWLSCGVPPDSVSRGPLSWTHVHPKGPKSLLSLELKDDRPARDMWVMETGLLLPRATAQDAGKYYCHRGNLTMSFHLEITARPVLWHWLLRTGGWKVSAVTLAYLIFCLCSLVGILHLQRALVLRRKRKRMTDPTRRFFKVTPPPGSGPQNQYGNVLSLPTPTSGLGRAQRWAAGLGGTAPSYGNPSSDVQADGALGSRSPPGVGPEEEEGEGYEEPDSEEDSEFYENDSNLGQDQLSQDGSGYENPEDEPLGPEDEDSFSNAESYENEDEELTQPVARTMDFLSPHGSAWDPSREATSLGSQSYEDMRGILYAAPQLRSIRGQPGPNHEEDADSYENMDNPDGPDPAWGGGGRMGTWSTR

T2: FITC-Labeled human CD19 protein (ACROBiosystem, Cat-CD9-HF251) (human, UniProt P15391 20-291, FITC label)
T2 construct: The text calls the same reagent CD19-FITC and CD19-GFP; also called CD19-FITC protein; CD19-FTC protein
T2 sequence (looked up): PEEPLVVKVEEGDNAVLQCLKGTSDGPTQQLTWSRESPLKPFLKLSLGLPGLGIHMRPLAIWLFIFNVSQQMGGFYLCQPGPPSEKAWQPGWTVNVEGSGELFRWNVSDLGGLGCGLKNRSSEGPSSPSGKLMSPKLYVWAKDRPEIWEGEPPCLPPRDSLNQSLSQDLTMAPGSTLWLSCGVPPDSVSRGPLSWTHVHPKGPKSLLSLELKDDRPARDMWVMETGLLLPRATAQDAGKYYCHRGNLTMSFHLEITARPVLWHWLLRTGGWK

B1: CD19 CAR comprising CD19 binder 52 (anti-CD19 scFv-BBz CAR) on T cells (other)
chain: QSVLTQPPSVSGAPGQRVTISCTGSSSNIGAGYDVHWYQQLPGTAPKLLIYGTKNRPSGVPDRFSGSKSGTSASLAITGLQAEDEADYYCQSYDVRLKGWVFGGGTKLTVLGGGGSGGGGSGGGGSQLQLQESGPGLVKPSETLSLTCTVSGGSITSSSYYWGWIRQPPGKGLEWIGSIYYTGTTYYNPSLKSRVTISVDTSKNQFSLKLSSVTAADTAVYYCARYVGLSGGFDYWGQGTLVTVSSTTTPAPRPPTPAPTIASQPLSLRPEACRPAAGGAVHTRGLDFACDIYIWAPLAGTCGVLLLSLVITLYCKRGRKKLLYIFKQPFMRPVQTTQEEDGCSCRFPEEEEGGCELRVKFSRSADAPAYKQGQNQLYNELNLGRREEYDVLDKRRGRDPEMGGKPRRKNPQEGLYNELQKDKMAEAYSEIGMKGERRRGKGHDGLYQGLSTATKDTYDALHMQALPPR
notes: also called CD19-52 CAR
B2: CD19 CAR comprising CD19 binder 45 (anti-CD19 scFv-BBz CAR) on T cells (other)
chain: DIQMTQSPSSLSASVGDRVTITCRASQDITRYLNWYQQKPGKAPKLLIYAASSLQSGVPSRFSGSGSGTDFTLTISSLQPEDFATYYCQQSYSYPPTFGQGTKVEIKGGGGSGGGGSGGGGSQVQLVESGGGVVQPGRSLRLSCAASGFTFRDYGMHWVRQAPGKGLEWVAVISYEGSNEYYADSVKGRFTISRDNSKNTLYLQMNSLRAEDTAVYYCARDRGFAGWYDYAFDPWGQGTLVTVSSTTTPAPRPPTPAPTIASQPLSLRPEACRPAAGGAVHTRGLDFACDIYIWAPLAGTCGVLLLSLVITLYCKRGRKKLLYIFKQPFMRPVQTTQEEDGCSCRFPEEEEGGCELRVKFSRSADAPAYKQGQNQLYNELNLGRREEYDVLDKRRGRDPEMGGKPRRKNPQEGLYNELQKDKMAEAYSEIGMKGERRRGKGHDGLYQGLSTATKDTYDALHMQALPPR
notes: also called CD19-45 CAR; 45 original

What was measured:
[1] = biological target: FCGR1A (FCGR protein) of the membrane proteome array (human) (UniProt P12314); test: validation titration, flow cytometry on transfected HEK-293T cells
[2] = biological target: Protein A (positive assay control transfected into cells) (UniProt P38507); test: as above
[3] = biological target: T1, Human CD19, wild-type full-length …; test: cell-based or functional assay
[4] = biological target: T2, FITC-Labeled human CD19 protein …; test: flow cytometry, ND539 CAR T cells day 9, CD19-FITC protein only (untransduced 0.85)
Method: At day 9 (D9) post-transduction, frozen ND539 CAR T cells were incubated with a fluorescently labeled recombinant CD19 protein. The CD19 CAR T cells were then analyzed by flow cytometry to determine the binding of the recombinant molecules to the CD19 CAR T cells. ND539 CAR T cells expressing a CAR comprising a FMC63 binder were used as control. Flow was gated for CD19 binder CAR.

[5] = biological target: T2, FITC-Labeled human CD19 protein …; test: flow cytometry, CD19-FITC protein added after anti-FMC63 Ab PE; FITC gate; competitor anti-FMC63 Ab (untransduced 0.86)
Method: To determine whether the anti-FMC63 antibody and the CD19 binders could bind the same region on the CD19 protein, competitive assays were performed. In the first set of experiments, the CD19 CAR T cells were first incubated with 1 ul of anti-FMC63 antibody PE for 20 minutes. After the incubation period, 2 ul of the CD19-FITC protein was added to the CAR T cells, which were further incubated for another 20 minutes. The CAR T cells were washed and assessed by Flow cytometry. The CAR T cells were gated for anti-FMC63 antibody (idiotype antibody binding) and the CD19 CAR binders (CD19-GFP detection).

[6] = biological target: T2, FITC-Labeled human CD19 protein …; test: flow cytometry, premixed CD19-FITC protein and anti-CD19 PE (FMC63 clone) 1:1; FITC gate; competitor anti-CD19 PE (untransduced 0.21)
Method: (§1) In the second set of assays, CAR T cells were co-incubated with the CD19-FTC protein and the anti-CD19 PE (FMC63 clones) at 1:1 or 1:3 ratio for 15 minutes. The CAR T cells were then stained and incubated for 20 minutes before imaging by flow cytometry. […] The CAR T cells were gated for anti-CD19 PE (anti-FMC63 antibody; idiotype antibody binding) and the CD19 binder CAR binder FITC (CD19-GFP detection).

[7] = biological target: T2, FITC-Labeled human CD19 protein …; test: flow cytometry, premixed CD19-FITC protein and anti-CD19 PE (FMC63 clone) 1:3; FITC gate; competitor anti-CD19 PE (untransduced 0.21)
Method: as §1

Sequence of FCGR1A (FCGR protein) of the membrane proteome array (human) (P12314 16-374): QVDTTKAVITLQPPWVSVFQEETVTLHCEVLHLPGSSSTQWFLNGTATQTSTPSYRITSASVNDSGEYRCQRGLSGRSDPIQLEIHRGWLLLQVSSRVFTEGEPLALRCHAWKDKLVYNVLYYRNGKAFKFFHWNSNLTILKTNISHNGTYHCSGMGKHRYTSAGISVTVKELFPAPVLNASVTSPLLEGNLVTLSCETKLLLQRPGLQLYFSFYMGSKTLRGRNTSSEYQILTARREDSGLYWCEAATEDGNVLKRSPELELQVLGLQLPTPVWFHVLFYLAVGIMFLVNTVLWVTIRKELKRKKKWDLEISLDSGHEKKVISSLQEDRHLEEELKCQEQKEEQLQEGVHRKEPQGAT

Molecule | MFI signal, fold above negative control [1] | MFI signal, fold above negative control [2] | IL-2 & TNF-α, intracellular cytokine staining, Nalm6 stimulation, ND608 CAR T cells day 9 [3] | IL-2, intracellular cytokine staining, Nalm6 stimulation, ND608 CAR T cells day 9 [3] | TNF-α, intracellular cytokine staining, Nalm6 stimulation, ND608 CAR T cells day 9 [3] | Gated for CD19-CAR expression [4] | Gated for CD19 CAR Expression [5] | Gated for CD19-CAR-FITC expression [6] | Gated for CD19-CAR-FITC expression [7]
isotype control article (Example 13) | > 45 fold | > 190 fold |  |  |  |  |  |  | 
B1 |  |  | 37% | 1.06% | 36.1% | 30.4 mfi | 20.1 mfi | 14.5 mfi | 5.56 mfi
B2 |  |  | 28.1% | 1.16% | 25.2% | 23.1 mfi | 17.7 mfi | 9.64 mfi | 4.76 mfi

From US20240123068A1 (KITE PHARMA, published 2024)
